Measurements taken from patent publication US20050026234A1.

Tests used:
[1] = molecular target: modified kemptide LRRASLP of C4kY2.1, phosphorylated by PKA at serine 475; assay: cell-based or functional assay
[2] = molecular target: PKC substrate sequence … of CKAR, phosphorylated by PKC at the phosphoacceptor threonine; assay: cell-based or functional assay

| FRET efficiency of phosphorylated C4kY2.1, calculated after trypsin treatment (nonphosphorylated: 30%) [1] [%] | change in the emission ratio 535 nm/480 nm in cells pretreated with 10 µM H-89, then 1 mM dbcAMP [1] [%] | emission ratio of 526 nm and 476 nm of the purified PKA-phosphorylated chimera before dephosphorylation by PP1 (1.14 after) [1] | increase in the 535 nm/480 nm ratio in COS-7 cells treated with FsK and with dbcAMP [1] [%] | ratio of the emission at 526 nm and 476 nm of purified C4kY2.1 after phosphorylation by PKA catalytic subunit (1.09 before) [1] | absolute amount of FRET of purified CKAR after phosphorylation by PKC βII (38% before), estimated from emission spectra [2] [%] | Substance |
| --- | --- | --- | --- | --- | --- | --- |
| 20 | 46 | 1.39 | 5 | 1.42 | – | 14-3-3τ (1-232), the phosphoaminoacid binding domain of the chimeric PKA reporter protein C4kY2.1 |
| – | – | – | – | – | 34 | FHA2 phosphothreonine binding domain from the yeast checkpoint protein rad53p, as the binding domain of CKAR (from UniProt P22216 601-681) |
